Test results as given in publication PMC5124697, “Expression Profiles and DNA-Binding Affinity of Five ERF Genes in Bunches of Vitis vinifera cv. Cardinal Treated with High Levels of CO2 at Low Temperature”.

B1: Le-osmo GCC box (dsDNA)
DNA 1: AAAAGCCGCCACAC
DNA 2: GTGTGGCGGCTTTT
B2: Nt-chit GCC box (dsDNA)
DNA 1: AAGAGCCGCCACTA
DNA 2: TAGTGGCGGCTCTT
B3: Vcchit1b GCC box (dsDNA)
DNA 1: AAAAGCCGCCCACG
DNA 2: CGTGGGCGGCTTTT
B4: Vcgns1 GCC box (dsDNA)
DNA 1: TGGAGCCGCCGGGA
DNA 2: TCCCGGCGGCTCCA

What was measured:
Test in all cases: EMSA; EMSA: 2 ug protein in 20 ul, 80 nM biotin probe, 50 ng/ul poly(dI-dC), 2.5% glycerol, 1x binding buffer (composition and pH not given), room temperature 20 min; 6% native PAGE, 0.5x TBE; competition 500x unlabeled probe (50 uM unlabeled DNA listed)
Conditions in all cases: protein: recombinant; tags: N-terminal His (pTrcHisA); label: 3' biotin
[1] = target: VviERF069-c (Vitis vinifera cv. Cardinal, UniProt A0A1L6BXE7 1-285)
Sequence of VviERF069-c (A0A1L6BXE7 entry or part of it): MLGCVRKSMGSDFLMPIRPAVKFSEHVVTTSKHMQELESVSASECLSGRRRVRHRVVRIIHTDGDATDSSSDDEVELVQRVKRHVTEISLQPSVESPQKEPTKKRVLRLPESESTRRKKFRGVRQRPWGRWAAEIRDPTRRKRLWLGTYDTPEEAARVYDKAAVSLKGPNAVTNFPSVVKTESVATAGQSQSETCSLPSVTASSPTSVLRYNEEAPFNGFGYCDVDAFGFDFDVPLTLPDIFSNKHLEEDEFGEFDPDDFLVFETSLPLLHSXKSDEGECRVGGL

[2] = target: VviERF11-c (Vitis vinifera cv. Cardinal, UniProt A0A1L6BXF0 1-220)
Sequence of VviERF11-c (A0A1L6BXF0 entry or part of it): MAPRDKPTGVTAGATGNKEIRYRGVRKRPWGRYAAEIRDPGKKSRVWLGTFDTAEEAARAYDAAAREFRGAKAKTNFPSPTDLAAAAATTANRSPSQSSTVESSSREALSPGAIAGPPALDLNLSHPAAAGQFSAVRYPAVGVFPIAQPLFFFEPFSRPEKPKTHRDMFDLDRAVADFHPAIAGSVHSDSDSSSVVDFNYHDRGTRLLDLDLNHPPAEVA

[3] = target: VviERF10-c (Vitis vinifera cv. Cardinal, UniProt F6HIF5 1-204)
Sequence of VviERF10-c (F6HIF5 entry or part of it): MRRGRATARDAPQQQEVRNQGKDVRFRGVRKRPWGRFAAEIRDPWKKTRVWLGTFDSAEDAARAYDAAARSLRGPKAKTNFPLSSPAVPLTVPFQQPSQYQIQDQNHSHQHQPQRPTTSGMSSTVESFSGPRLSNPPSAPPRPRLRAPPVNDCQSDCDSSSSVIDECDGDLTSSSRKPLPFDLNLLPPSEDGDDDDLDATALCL

[4] = target: VviERF2-c (Vitis vinifera cv. Cardinal, UniProt A0A1L6BXE6 1-282)
Sequence of VviERF2-c (A0A1L6BXE6 entry or part of it): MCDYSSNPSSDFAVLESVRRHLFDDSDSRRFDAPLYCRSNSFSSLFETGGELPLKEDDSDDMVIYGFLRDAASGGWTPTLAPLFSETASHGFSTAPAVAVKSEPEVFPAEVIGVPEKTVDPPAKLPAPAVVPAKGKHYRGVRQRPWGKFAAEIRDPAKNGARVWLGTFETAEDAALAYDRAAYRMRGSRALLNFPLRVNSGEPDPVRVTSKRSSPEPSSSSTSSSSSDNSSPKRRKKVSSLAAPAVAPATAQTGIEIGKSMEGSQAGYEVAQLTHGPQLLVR

[5] = target: VviERF6L7-c (Vitis vinifera cv. Cardinal, UniProt A0A1L6BXF1 1-277)
Sequence of VviERF6L7-c (A0A1L6BXF1 entry or part of it): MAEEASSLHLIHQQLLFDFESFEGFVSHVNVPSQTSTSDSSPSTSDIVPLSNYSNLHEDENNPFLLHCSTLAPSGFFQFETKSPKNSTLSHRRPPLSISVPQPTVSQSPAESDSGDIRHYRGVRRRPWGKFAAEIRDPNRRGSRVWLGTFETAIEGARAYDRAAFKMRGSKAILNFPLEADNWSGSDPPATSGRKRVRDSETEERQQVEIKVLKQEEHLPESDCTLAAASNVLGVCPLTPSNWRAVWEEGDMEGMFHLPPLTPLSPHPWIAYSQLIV

Binder | binding result [1] | binding result [2] | binding result [3] | binding result [4] | binding result [5]
B1 | no binding | no binding | no binding | no binding | no binding
B2 | no binding | no binding | no binding | no binding | no binding
B3 | – | binds | – | binds | –
B4 | – | – | – | – | no binding
